Drawing on the RNAGym collection of RNA variant scans (doi:10.7554/elife.80360), this text covers self-cleavage for 38 variants.

B1: Hairpin Ribozyme (parent)
chain: GUCCUCUUUCACGUGCGCGUGAAAGAGAGAAGUGAACCAGAGAAACACACGUUGUGGUAUAUUACCUGGUA

In the data set the parent is B1. As to the kind of experiment: self-cleavage, relative activity (ratio to wild type); higher = more cleavage; co-transcriptional.
As to GUCCUCUUGCACGUGCGCGUGAAAGAGAGAAGAGAACCAGAGAAACACACGUUGUGGUAUAUUACCUGGUA [U9G U33A], the self-cleavage was 0.102.

In the case of GUCCUCUUGCACGUGCGCGUGAAAGAGAGAAGCGAACCAGAGAAACACACGUUGUGGUAUAUUACCUGGUA [U9G U33C], the self-cleavage came to 0.176.

GUCCUCUUUAAGGUGCGCGUGAAAGAGAGAAGUGAACCAGAGAAACACACGUUGUGGUAUAUUACCUGGUA [C10A C12G]: the self-cleavage was 0.556.

Turning to GUCCUCUUUAAUGUGCGCGUGAAAGAGAGAAGUGAACCAGAGAAACACACGUUGUGGUAUAUUACCUGGUA [C10A C12U], the self-cleavage was 0.452.

On to GUCCUCUUUAACGUUCGCGUGAAAGAGAGAAGUGAACCAGAGAAACACACGUUGUGGUAUAUUACCUGGUA [C10A G15U], for which the self-cleavage stood at 0.871.

With GUCCUCUUGCACGUGCGCGUGAAAGAGAGAAGUGAACCAGAGAAACACACGUUGUGGUAUAUUACCUGCUA [U9G G69C], the self-cleavage turned out to be 0.299.

For the variant GUCCUCUUUAACGUGCGCGUGCAAGAGAGAAGUGAACCAGAGAAACACACGUUGUGGUAUAUUACCUGGUA [C10A A22C], the self-cleavage is 0.636.

On to GUCCUCUUUAACGUGUGCGUGAAAGAGAGAAGUGAACCAGAGAAACACACGUUGUGGUAUAUUACCUGGUA [C10A C16U], for which the self-cleavage is 0.762.

Turning to GUCCUCUUUAACGUGCGCGUGAAAGAGAGAAGUGAACCAGAGAAACACACGUUGUCGUAUAUUACCUGGUA [C10A G56C], the self-cleavage turned out to be 0.11.

For GUCCUCUUUAACGUGCGCGUGAAAGAGAGAAGUGAACCAGAGAAACACACGUUGUAGUAUAUUACCUGGUA [C10A G56A], the self-cleavage is 0.133.

Regarding GUCCUCUUUAACGUGCGCGUGAAAGAGAGAAGUGAACCAGAGAAGCACACGUUGUGGUAUAUUACCUGGUA [C10A A45G], the self-cleavage came to 0.138.

In the case of GUCCUCUUUAACGUGCGCGUGAAAGAGAGAAGUGAACCAGAGAAACACACGUUGUGGUAUAUUUCCUGGUA [C10A A64U], the self-cleavage came to 0.121.

As to GUCCUCUUGCACGUGCGCGUGAAAGAGAGAAGUGAACCAGAGAAACACACGUUGUGGUAUAUAACCUGGUA [U9G U63A], the self-cleavage turned out to be 0.102.

On to GUCCUCUUUAACGUGCGCGUGAAAGAGAGAAGUGAACCAGAGAAACACACGUUGUGGUAUAUUACCUGAUA [C10A G69A], for which the self-cleavage is 0.317.

Turning to GUCCUCUUUAACGUGCGCGUGAAAGAGAGAAGUGAACCAGAGAAACACACGUUGUGGUAUAUUACCUGCUA [C10A G69C], the self-cleavage is 0.241.

On to GUCCUCUUUAACGUGCGCGUGAAUGAGAGAAGUGAACCAGAGAAACACACGUUGUGGUAUAUUACCUGGUA [C10A A24U], for which the self-cleavage was determined as 0.584.

As for GUCCUCUUUAACGUGCGCGUGAAGGAGAGAAGUGAACCAGAGAAACACACGUUGUGGUAUAUUACCUGGUA [C10A A24G], the self-cleavage is 0.57.

As for GUCCUCUUGCACGUGCGCGUGAAAGAGAGAAGUGAACCAGAGAAACACACGUUGUGGUAUAUUACCUCGUA [U9G G68C], the self-cleavage was 0.136.

Turning to GUCCUCUUGCACGUGCGCGUGAAAGAGAGAAGUGAACCAGAGAAACACACGUUGUUGUAUAUUACCUGGUA [U9G G56U], the self-cleavage was 0.124.

Turning to GUCCUCUUUAACUUGCGCGUGAAAGAGAGAAGUGAACCAGAGAAACACACGUUGUGGUAUAUUACCUGGUA [C10A G13U], the self-cleavage was 0.425.

As to GUCCUCUUUAACGUGCGCGUGAAAGAGAGAAGUGAACCAGAGAAACAGACGUUGUGGUAUAUUACCUGGUA [C10A C48G], the self-cleavage was found to be 0.157.

For GUCCUCUUUAACGUGCGCGUGAAAGAGAGAAGUGAACCAGAGAAACAUACGUUGUGGUAUAUUACCUGGUA [C10A C48U], the self-cleavage is 0.0572.

In the case of GUCCUCUUUAACGUGCGCGUGAAAGAGAGAAGUGAACCAGAGAAACAAACGUUGUGGUAUAUUACCUGGUA [C10A C48A], the self-cleavage was determined as 0.102.

Regarding GUCCUCUUUAACGUGCGCGUGAAAGAGAGAAGUGAACCAGAGAAACACACAUUGUGGUAUAUUACCUGGUA [C10A G51A], the self-cleavage was determined as 0.695.

On to GUCCUCUUUAACGUGCGCGUGAAAGAGAGAAGUGAACCAGAGAAACACACGUUGUGGUAUAUUACCUCGUA [C10A G68C], for which the self-cleavage worked out at 0.114.

For the variant GUCCUCUUGCACGUGCGCGUGAAAGAGAGAAGUGAACCAGAGAAACACACGUUGUGAUAUAUUACCUGGUA [U9G G57A], the self-cleavage was determined as 0.132.

On to GUCCUCUUUAACGUGCGCGUGAAAGUGAGAAGUGAACCAGAGAAACACACGUUGUGGUAUAUUACCUGGUA [C10A A26U], for which the self-cleavage came to 0.461.

With GUCCUCUUUAACGUGCGCGUGAAAGCGAGAAGUGAACCAGAGAAACACACGUUGUGGUAUAUUACCUGGUA [C10A A26C], the self-cleavage came out at 0.297.

Take GUCCUCUUUAACGUGCGCGUGAAAGAGAGAAGUGAACCAGAGAAACACACGUUGUGGUAUAUUACCAGGUA [C10A U67A]: the self-cleavage turned out to be 0.0418.

Turning to GUCCUCUUUAACGUGCGCGUGAAAGAGAGAAGUGAACCAGAGAAACACACGUUGAGGUAUAUUACCUGGUA [C10A U55A], the self-cleavage was 0.23.

GUCCUCUUUGACGUGCGCGUGAUAGAGAGAAGUGAACCAGAGAAACACACGUUGUGGUAUAUUACCUGGUA [C10G A23U]: the self-cleavage came out at 0.656.

For the variant GUCCUCUUUAACGUGCGCGUGAAAGAGAGAAGUGAACCGGAGAAACACACGUUGUGGUAUAUUACCUGGUA [C10A A39G], the self-cleavage turned out to be 0.224.

On to GUCCUCUUUAACGUGCGCGUGAAAGAGAGAAGUGAACCUGAGAAACACACGUUGUGGUAUAUUACCUGGUA [C10A A39U], for which the self-cleavage came out at 0.262.

As for GUCCUCUUUAACGUGCGCGUGAAAGAGAGAAGUGAACCAGAGUAACACACGUUGUGGUAUAUUACCUGGUA [C10A A43U], the self-cleavage is 0.133.

For GUCCUCUUUAACGUGCGCGUGAAAGAGAGAAGUGAAGCAGAGAAACACACGUUGUGGUAUAUUACCUGGUA [C10A C37G], the self-cleavage was 0.266.

As to GUCCUCUUUAACGUGCGCGUGAAAGAGAGAAGUGAAUCAGAGAAACACACGUUGUGGUAUAUUACCUGGUA [C10A C37U], the self-cleavage was 0.437.

With GUCCUCUUGCACGUGCGCGUGAAAGAGAGAAGUGAACCAGAGAAACACACAUUGUGGUAUAUUACCUGGUA [U9G G51A], the self-cleavage was 0.626.

Regarding GUCCUCUUUAACGUGCGCGUGAAAGAGAGAAGUGAACGAGAGAAACACACGUUGUGGUAUAUUACCUGGUA [C10A C38G], the self-cleavage turned out to be 0.196.
